Measurements from patent US20230057263A1 (CYTOMX THERAPEUTICS, published 2023).
No end group written: not given here. *: point of attachment. Biotin = O=C1N[C@H]2[C@H](CS[C@H]2CCCCC(=O)*)N1; code X = not defined here

Tests used:
[1] = biological target: T1, human CD3 epsilon (CD3ε) (human, UniProt P07766 23-207); assay: flow cytometry on human T cells
T1 construct: Present on donor human T cells as part of the TCR-CD3 complex; also called CD3ε on human T cells
Protocol: In these experiments, human or cynomolgus T cells were incubated with an anti-CD3ε antibody and binding was assessed by flow cytometry.
Briefly, donor T cells from either human or cynomolgus donors were resuspended in FACS buffer containing 0.1% sodium azide and aliquoted in 100 μL volumes. For incubation, 100 μL aliquots of donor T cells were mixed with 50 μL of antibodies diluted in FACS buffer containing 0.1% sodium azide. The cells were then washed twice with FACS buffer containing sodium azide. The bound antibody was detected by incubating cells for 60 minutes with a 1:200 dilution of SAV-RPE (Invitrogen Cat No. SA10044, Lot. 1542820A) or 1:100 dilution of goat-anti-Mouse Fcγ-RPE (Jackson Cat. No. 115-116-071, Lot. 108668, diluted in 0.2% goat serum). The cells were washed, fixed, and analyzed with an Accuri Flow Cytometer.
Treatment with OKT3, SP34-2, and diL2K antibodies were used as positive controls for T cell binding. […] Treatment with OKT3, SP34-2, and diL2K antibodies were used as controls for T cell binding with only SP34-2 binding to cynomolgus T cells, as expected.

[2] = biological target: T2, B X QTPYKVSISGTTVIL (reading uncertain); assay: Luminex bead assay, 1 ug/ml antibody [Cont.]
T2 construct: row 13 of the chart; also called biotinylated 15-mer, residues 12-26
T2 peptide: {Biotin-code X}-QTPYKVSISGTTVIL
Protocol: (§1) A set of experiments was performed to map the epitope recognized by the anti-CD3ε antibodies. In these experiments, the anti-CD3ε antibodies were assessed for binding to a collection of overlapping 15-mer peptides spanning amino acids 1-27 of human CD3ε protein using a Luminex bead assay. Control CD3 proteins, control peptides, or the test peptides were immobilized on Luminex beads and incubated with a panel of anti-CD3 antibodies. Binding of the anti-CD3 antibodies to the peptide/protein immobilized on the Luminex bead was detected by R-Phycoerythrin conjugated secondary antibody.
(§2) Recombinant CD3 proteins (human CD3d/e heterodimer and cynomolgus CD3-epsilon (Sinobiological)) and control peptides (#p1, #p2, and #p3) were conjugated to Luminex beads using standard EDC/Sulfo-NHS chemistry. The 15-mer test peptides were synthesized as biotinylated peptides at JPT Peptide Technologies Gmbh and were immobilized on streptavidin-conjugated Luminex beads that were made using standard EDC/Sulfo-NHS chemistry and streptavidin (Invitrogen Cat. No. 434301 lot 1626028A). The Luminex beads with immobilized peptides or reagents were incubated with 50 ul of a panel of anti-CD3 antibodies (1 ug/ml) for one hour at room temperature, washed two times, incubated with mixture of anti-human and anti-mouse IgG-RPE (Jackson Immunoresearch 109-116-097 and Southern Biotech 1030-09, respectively) for 30 mins at RT, washed three times, and analyzed in the Luminex instrument to assess the level of bound anti-CD3 antibodies.

[3] = biological target: T3, B X TQTPYKVSISGTTVI (reading uncertain); assay: Luminex bead assay, 1 ug/ml antibody [Cont.]
T3 construct: row 12 of the chart; also called biotinylated 15-mer, residues 11-25
T3 peptide: {Biotin-code X}-TQTPYKVSISGTTVI
Protocol: as §1, §2

[4] = biological target: T4, B X QDGNEEMGGATQTP (reading uncertain); assay: Luminex bead assay, 1 ug/ml antibody [Cont.]
T4 construct: row 24 of the chart; 14 residues; also called alanine-scan peptide I10A
T4 peptide: {Biotin-code X}-QDGNEEMGGATQTP
Protocol: as §1, §2

[5] = biological target: T5, B X ADGNEEMGGITQTPY (reading uncertain); assay: Luminex bead assay, 1 ug/ml antibody [Cont.]
T5 construct: row 15 of the chart; also called alanine-scan peptide Q1A
T5 peptide: {Biotin-code X}-ADGNEEMGGITQTPY
Protocol: as §1, §2

[6] = biological target: T6, B X QDGNEEMAGITQTP (reading uncertain); assay: Luminex bead assay, 1 ug/ml antibody [Cont.]
T6 construct: row 22 of the chart; 14 residues; also called alanine-scan peptide G8A
T6 peptide: {Biotin-code X}-QDGNEEMAGITQTP
Protocol: as §1, §2

[7] = biological target: T7, B X QAGNEEMGGITQTP (reading uncertain); assay: Luminex bead assay, 1 ug/ml antibody [Cont.]
T7 construct: row 16 of the chart; also called alanine-scan peptide D2A
T7 peptide: {Biotin-code X}-QAGNEEMGGITQTP
Protocol: as §1, §2

[8] = biological target: T8, B X QDGNEEMGGIAQTP (reading uncertain); assay: Luminex bead assay, 1 ug/ml antibody [Cont.]
T8 construct: row 25 of the chart; 14 residues; also called alanine-scan peptide T11A
T8 peptide: {Biotin-code X}-QDGNEEMGGIAQTP
Protocol: as §1, §2

[9] = biological target: T9, B X QDGNEEMGAITQTP (reading uncertain); assay: Luminex bead assay, 1 ug/ml antibody [Cont.]
T9 construct: row 23 of the chart; 14 residues; also called alanine-scan peptide G9A
T9 peptide: {Biotin-code X}-QDGNEEMGAITQTP
Protocol: as §1, §2

[10] = biological target: T10, B X GITQTPYKVSISGTT (reading uncertain); assay: Luminex bead assay, 1 ug/ml antibody [Cont.]
T10 construct: row 10 of the chart; also called biotinylated 15-mer, residues 9-23
T10 peptide: {Biotin-code X}-GITQTPYKVSISGTT
Protocol: as §1, §2

[11] = biological target: T11, huCD3d/eCHO-E DT1331 (human, UniProt P04234); assay: Luminex bead assay, 1 ug/ml antibody [Cont.]
T11 construct: recombinant, part of a CD3 delta/epsilon heterodimer; coupled to Luminex beads
T11 sequence (P04234 22-105): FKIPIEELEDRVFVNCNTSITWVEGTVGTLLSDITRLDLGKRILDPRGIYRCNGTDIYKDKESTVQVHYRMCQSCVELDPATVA
Protocol: as §1, §2

[12] = biological target: T12, B X QDGAEEMGGITQTP (reading uncertain); assay: Luminex bead assay, 1 ug/ml antibody [Cont.]
T12 construct: row 18 of the chart; 14 residues; also called alanine-scan peptide N4A
T12 peptide: {Biotin-code X}-QDGAEEMGGITQTP
Protocol: as §1, §2

[13] = biological target: T13, B X QDGNAEMGGITQTP (reading uncertain); assay: Luminex bead assay, 1 ug/ml antibody [Cont.]
T13 construct: row 19 of the chart; 14 residues; also called alanine-scan peptide E5A
T13 peptide: {Biotin-code X}-QDGNAEMGGITQTP
Protocol: as §1, §2

[14] = biological target: T14, B X QDANEEMGGITQTP (reading uncertain); assay: Luminex bead assay, 1 ug/ml antibody [Cont.]
T14 construct: row 17 of the chart; 14 residues; also called alanine-scan peptide G3A
T14 peptide: {Biotin-code X}-QDANEEMGGITQTP
Protocol: as §1, §2

[15] = biological target: T15, B X GGITQTPYKVSISGT (reading uncertain); assay: Luminex bead assay, 1 ug/ml antibody [Cont.]
T15 construct: row 9 of the chart; also called biotinylated 15-mer, residues 8-22
T15 peptide: {Biotin-code X}-GGITQTPYKVSISGT
Protocol: as §1, §2

[16] = biological target: T16, B X DGNEEMGGITQTPYK (reading uncertain); assay: Luminex bead assay, 1 ug/ml antibody [Cont.]
T16 construct: row 3 of the chart; also called biotinylated 15-mer, residues 2-16
T16 peptide: {Biotin-code X}-DGNEEMGGITQTPYK
Protocol: as §1, §2

EC50 (read off the curve) [1]: ~60 pM | Luminex signal [3]: 47.5 | Luminex signal [4]: 2630 | Luminex signal [5]: 11300 | Luminex signal [6]: 2510 | Luminex signal [7]: 45 | Luminex signal [8]: 2910 | Luminex signal [9]: 2660 | Luminex signal [10]: 43 | Luminex signal [11]: 23200 | Luminex signal [12]: 48 | Luminex signal [13]: 483 | Luminex signal [14]: 32.5 | Luminex signal [15]: 29.5 | Luminex signal [16]: 404
B1: 6d59 (antibody, V domains shown)
VH: QVHLVESGGGVVQPGRSLRLSCAASGFKFRSYGMHWVRQAPGKGLEWVAIIWYDGSKRYYADSVKGRFTISRDNSKNTLYLQMSSLRAEDTAVYYCARDLITGTTDYWGQGTLVTVSS
VL: DVVMTQSPLSLPVTLGQPASISCRSSRSLVYSDGNTHLIWFQQRPGQSPRRLIYRVSNRVSGVPDRFSGSGSGTDFTLKISRVEAEDVGVYYCLQGAHWPYTFGQGTKLEIKR
notes: also called 6d59.1; VCD3-6d59.1
Luminex signal [2]: 31.5
